Test results taken from patent publication US20120202747A1 (TORU MIYAZAKI, published 2012).

Columns and labels:
[1] = target: T1, mouse CD36 fused with a FLAG-tag at its C terminus, overexpressed on HEK293 cells (mouse, UniProt Q08857 1-472); test: confocal microscopy of HEK293 cells overexpressing mouse CD36-FLAG, cultured with mouse AIM for 3 hours
T1 construct: whole, on cells; also called CD36-FLAG; not shown: C-terminal FLAG tag
Protocol: CD36 is a twice-transmembrane-type molecule, is expressed on adipocytes and macrophages, and is involved in intracellular internalization of many molecules including fatty acids, LDL, and the like. Thus, HEK293 cells in which mouse CD36 fused with a FLAG-tag at its C terminus was overexpressed were produced, and the cells were cultured with mouse AIM for 3 hours. Subsequently, the cells were collected, stained using an anti-AIM antibody and an anti-CD36 antibody, and observed under a confocal microscope.

[2] = target: T2, endogenous FAS (fatty acid synthase) in mouse adipocytes (mouse, UniProt P19096 1-2504); test: precipitation of endocytosed HA-tagged rAIM from lysates of mouse adipose tissue with an anti-HA antibody, Western blot for FAS
T2 construct: also called cytosolic FAS
T2 sequence (P19096 whole entry): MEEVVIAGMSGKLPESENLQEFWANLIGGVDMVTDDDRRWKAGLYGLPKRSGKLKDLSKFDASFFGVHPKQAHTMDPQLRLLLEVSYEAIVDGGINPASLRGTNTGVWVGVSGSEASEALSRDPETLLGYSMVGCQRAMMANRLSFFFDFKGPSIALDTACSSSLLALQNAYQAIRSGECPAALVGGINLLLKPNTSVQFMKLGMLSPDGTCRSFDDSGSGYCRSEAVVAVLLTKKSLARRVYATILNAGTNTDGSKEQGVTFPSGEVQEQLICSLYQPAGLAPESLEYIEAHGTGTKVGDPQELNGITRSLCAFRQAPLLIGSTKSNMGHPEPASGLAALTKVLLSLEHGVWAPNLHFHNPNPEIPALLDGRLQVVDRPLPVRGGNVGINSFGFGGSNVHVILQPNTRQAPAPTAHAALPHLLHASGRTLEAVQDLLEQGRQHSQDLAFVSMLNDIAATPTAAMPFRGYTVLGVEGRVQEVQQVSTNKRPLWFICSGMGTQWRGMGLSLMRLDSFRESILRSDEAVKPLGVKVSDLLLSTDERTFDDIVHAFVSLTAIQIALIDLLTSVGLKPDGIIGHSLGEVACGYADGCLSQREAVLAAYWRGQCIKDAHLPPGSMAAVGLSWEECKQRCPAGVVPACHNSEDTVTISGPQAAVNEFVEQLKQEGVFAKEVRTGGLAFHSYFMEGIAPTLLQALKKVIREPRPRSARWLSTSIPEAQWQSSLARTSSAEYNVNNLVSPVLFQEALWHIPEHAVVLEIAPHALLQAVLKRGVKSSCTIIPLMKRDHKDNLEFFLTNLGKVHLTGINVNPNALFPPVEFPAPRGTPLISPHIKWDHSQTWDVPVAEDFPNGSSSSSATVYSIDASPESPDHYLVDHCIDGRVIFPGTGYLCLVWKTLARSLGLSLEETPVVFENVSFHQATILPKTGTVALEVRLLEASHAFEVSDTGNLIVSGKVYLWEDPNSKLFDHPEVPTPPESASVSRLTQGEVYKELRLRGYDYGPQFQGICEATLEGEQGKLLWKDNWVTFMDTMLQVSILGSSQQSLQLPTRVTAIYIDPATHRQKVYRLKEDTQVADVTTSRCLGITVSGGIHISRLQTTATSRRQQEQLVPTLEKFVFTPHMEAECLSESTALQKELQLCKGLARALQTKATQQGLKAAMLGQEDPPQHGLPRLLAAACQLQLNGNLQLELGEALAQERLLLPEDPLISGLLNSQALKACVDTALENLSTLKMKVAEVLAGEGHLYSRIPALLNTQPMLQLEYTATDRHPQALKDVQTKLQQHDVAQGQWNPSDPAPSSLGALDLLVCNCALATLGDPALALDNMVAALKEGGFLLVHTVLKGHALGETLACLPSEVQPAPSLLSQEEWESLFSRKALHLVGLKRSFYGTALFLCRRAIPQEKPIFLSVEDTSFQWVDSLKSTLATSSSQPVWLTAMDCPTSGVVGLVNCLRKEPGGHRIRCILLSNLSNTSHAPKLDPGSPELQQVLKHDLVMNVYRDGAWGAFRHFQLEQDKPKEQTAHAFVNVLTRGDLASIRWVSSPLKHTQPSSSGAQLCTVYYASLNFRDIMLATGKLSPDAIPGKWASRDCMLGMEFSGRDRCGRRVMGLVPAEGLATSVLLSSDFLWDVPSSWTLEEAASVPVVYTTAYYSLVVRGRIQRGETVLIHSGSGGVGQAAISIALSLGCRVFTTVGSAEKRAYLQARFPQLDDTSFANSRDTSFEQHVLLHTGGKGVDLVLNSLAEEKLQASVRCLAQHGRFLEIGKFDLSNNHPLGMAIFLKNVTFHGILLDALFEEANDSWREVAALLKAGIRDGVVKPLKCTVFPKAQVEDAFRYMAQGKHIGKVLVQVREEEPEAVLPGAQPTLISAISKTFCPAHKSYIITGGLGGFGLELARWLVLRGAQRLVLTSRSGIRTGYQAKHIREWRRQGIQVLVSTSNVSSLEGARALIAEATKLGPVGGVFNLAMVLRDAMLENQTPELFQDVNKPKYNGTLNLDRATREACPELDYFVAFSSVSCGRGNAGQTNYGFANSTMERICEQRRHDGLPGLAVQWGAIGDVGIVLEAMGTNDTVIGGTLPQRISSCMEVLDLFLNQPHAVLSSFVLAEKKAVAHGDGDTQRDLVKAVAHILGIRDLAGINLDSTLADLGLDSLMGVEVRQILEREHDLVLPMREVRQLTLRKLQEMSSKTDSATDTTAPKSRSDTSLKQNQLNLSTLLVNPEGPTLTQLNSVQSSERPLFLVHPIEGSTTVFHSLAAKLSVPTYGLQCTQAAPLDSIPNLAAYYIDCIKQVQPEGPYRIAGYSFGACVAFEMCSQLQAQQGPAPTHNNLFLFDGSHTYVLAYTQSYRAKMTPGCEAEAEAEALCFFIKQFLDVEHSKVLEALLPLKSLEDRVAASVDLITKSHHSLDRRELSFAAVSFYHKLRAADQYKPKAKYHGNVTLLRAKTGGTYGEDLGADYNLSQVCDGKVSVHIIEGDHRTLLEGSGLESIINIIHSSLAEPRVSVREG
Protocol: Further, the endocytosed rAIM was precipitated using lysates derived from those adipose tissues to examine whether endogenous FAS was co-precipitated or not. That is, the presence of FAS in the precipitate was analyzed by Western blotting using HA-tagged rAIM and an anti-HA antibody.

T1 sequence (Q08857 whole entry, the tested form may be a part): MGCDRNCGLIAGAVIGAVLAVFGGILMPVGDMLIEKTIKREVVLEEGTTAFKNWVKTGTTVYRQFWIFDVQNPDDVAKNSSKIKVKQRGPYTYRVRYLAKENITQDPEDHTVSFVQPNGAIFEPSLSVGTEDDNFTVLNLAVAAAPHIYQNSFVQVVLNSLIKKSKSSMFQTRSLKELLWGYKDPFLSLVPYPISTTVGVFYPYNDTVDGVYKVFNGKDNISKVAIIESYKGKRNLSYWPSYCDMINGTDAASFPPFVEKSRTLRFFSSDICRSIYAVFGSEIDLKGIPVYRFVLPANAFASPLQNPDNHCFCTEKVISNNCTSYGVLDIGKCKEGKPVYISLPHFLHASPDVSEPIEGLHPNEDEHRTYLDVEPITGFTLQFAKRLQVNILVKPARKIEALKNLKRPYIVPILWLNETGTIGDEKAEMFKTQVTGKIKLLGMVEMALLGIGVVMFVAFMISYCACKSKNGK

| Binder | binding result [1] | binding result [2] |
| --- | --- | --- |
| recombinant mouse AIM protein (other, no cleavage site is stated; also called Mouse rAIM; rAIM) ESPTKVQLVGGAHRCEGRVEVEHNGQWGTVCDDGWDRRDVAVVCRELNCGAVIQTPRGASYQPPASEQRVLIQGVDCNGTEDTLAQCELNYYVFDCSHEEDAGAQCENPDSDLLFIPEDVRLVDGPGHCQGRVEVLHQSQWSTVCKAGWNLQVSKVVCRQLGCGRALLTYGSCNKNTQGKGPIWMGKMSCSGQEANLRSCLLSRLENNCTHGEDTWMECEDPFELKLVGGDTPCSGRLEVLHKGSWGSVCDDNWGEKEDQVVCKQLGCGKSLHPSPKTRKIYGPGAGRIWLDDVNCSGKEQSLEFCRHRLWGYHDCTHKEDVEVICTDFDV | binds |  |
| mouse AIM (apoptosis inhibitor of macrophage) fused with an HA-tag (other, also called HA-AIM; AIM tagged with HA; not shown: HA tag) ESPTKVQLVGGAHRCEGRVEVEHNGQWGTVCDDGWDRRDVAVVCRELNCGAVIQTPRGASYQPPASEQRVLIQGVDCNGTEDTLAQCELNYYVFDCSHEEDAGAQCENPDSDLLFIPEDVRLVDGPGHCQGRVEVLHQSQWSTVCKAGWNLQVSKVVCRQLGCGRALLTYGSCNKNTQGKGPIWMGKMSCSGQEANLRSCLLSRLENNCTHGEDTWMECEDPFELKLVGGDTPCSGRLEVLHKGSWGSVCDDNWGEKEDQVVCKQLGCGKSLHPSPKTRKIYGPGAGRIWLDDVNCSGKEQSLEFCRHRLWGYHDCTHKEDVEVICTDFDV |  | binds |
